Data reported in publication PMC7070046, “Sjögren syndrome/scleroderma autoantigen 1 is a direct Tankyrase binding partner in cancer cells” (Communications Biology, 2020).
Where no end group is shown, it is not given here.

Assays:
[1] = target: T1, TNKS1 ARC subdomains 1–3 (ARC1–3, residues 178–645) (human, UniProt O95271 178-645); assay: fluorescence polarisation; 50 nM 5-FAM-Ahx peptide with varied ARC1–3 protein; 25 mM HEPES pH 8, 150 mM NaCl, 1 mM TCEP, 5% glycerol, 0.05% CHAPS; room temperature, 60 min; one-site total binding model; details: both partners purified
T1 construct: human Tankyrase 1, ankyrin repeat clusters 1-3, residues 178-645; Cloned into pETM11 with NcoI and XhoI; also called TNKS1 ARC1–3
T1 sequence (looked up): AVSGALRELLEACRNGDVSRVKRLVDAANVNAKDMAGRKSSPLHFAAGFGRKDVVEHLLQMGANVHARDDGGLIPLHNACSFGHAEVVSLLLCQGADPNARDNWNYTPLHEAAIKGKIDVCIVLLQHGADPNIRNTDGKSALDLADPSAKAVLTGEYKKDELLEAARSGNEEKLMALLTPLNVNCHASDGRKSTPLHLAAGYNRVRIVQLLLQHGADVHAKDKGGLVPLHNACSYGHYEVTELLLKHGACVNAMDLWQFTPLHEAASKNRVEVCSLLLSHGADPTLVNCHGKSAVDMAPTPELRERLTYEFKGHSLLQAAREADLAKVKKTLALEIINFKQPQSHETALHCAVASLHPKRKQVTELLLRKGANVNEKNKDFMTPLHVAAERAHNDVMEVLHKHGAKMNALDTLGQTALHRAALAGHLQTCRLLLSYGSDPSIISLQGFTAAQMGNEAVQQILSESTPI

[2] = target: T2, TNKS1 ARC subdomains 1–3 (ARC1–3, residues 178–645) (human, UniProt O95271 178-645); assay: FP
T2 chain: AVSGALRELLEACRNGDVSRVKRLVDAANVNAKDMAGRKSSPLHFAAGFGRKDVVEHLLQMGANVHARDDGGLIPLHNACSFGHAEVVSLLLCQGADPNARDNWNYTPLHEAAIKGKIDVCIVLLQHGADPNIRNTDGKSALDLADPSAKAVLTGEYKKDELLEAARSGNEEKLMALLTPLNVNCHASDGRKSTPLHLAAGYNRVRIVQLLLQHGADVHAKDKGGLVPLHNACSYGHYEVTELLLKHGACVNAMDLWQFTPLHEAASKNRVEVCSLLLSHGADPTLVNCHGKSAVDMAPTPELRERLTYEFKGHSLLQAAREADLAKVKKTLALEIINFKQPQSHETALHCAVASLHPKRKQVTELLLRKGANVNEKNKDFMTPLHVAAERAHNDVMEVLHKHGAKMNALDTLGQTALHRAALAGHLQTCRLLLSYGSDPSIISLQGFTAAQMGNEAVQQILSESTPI

[3] = target: the molecule itself; assay: SEC; HiLoad Superdex S75 16/600; 20 mM HEPES pH 7.4, 200 mM NaCl, 5% glycerol, 0.1 mM TCEP; elution compared with standard proteins (estimated native MW 24.6 kDa, predicted 12.5 kDa)

B1: SSSCA1-H2 peptide (TSLETSIQLCGLIRACAEALRSLQQL) (peptide)
peptide: TSLETSIQLCGLIRACAEALRSLQQL
modifications: cysteine pairing not given here; also: 5-FAM-Ahx conjugate, position not given here
notes: human SSSCA1, helix H2 region; source: synthetic peptide (bought: GenScript)
B1: binds [1].

B2: Axin1 positive control peptide (EDAPRPPVPGEEG) (peptide)
peptide: EDAPRPPVPGEEG
modifications: not fully specified (N-terminus); also: 5-FAM-Ahx-conjugated
notes: source: synthetic peptide (bought: GenScript)
With B2 the Kd [2] was 460 nM and the binding result [1] was “binds”.

B3: SSSCA1-H2 peptide (TSLETSIQLCGLIRACAEALRSLQQL) (peptide)
peptide: TSLETSIQLCGLIRACAEALRSLQQL
modifications: not fully specified (N-terminus); cysteine pairing not given here; also: 5-FAM-Ahx-conjugated
B3 was tested, and the Kd [2] was 60 nM.

B4: SSSCA1-H1 peptide (DVMACTQTALLQKLTWASAELGSS) (peptide)
peptide: DVMACTQTALLQKLTWASAELGSS
modifications: not fully specified (N-terminus); also: 5-FAM-Ahx-conjugated
notes: human SSSCA1, helix H1 region; source: synthetic peptide (bought: GenScript)
In the case of B4, the Kd [2] is reported as 460 nM and the binding result [1] is reported as “binds”.

B5: SSSCA1 N-terminal Auto_anti-p27 domain (M1-S111) (domain or fragment, human, UniProt O60232 1-111, looked up)
chain: MALNGAEVDDFSWEPPTEAETKVLQARRERQDRISRLMGDYLLRGYRMLGETCADCGTILLQDKQRKIYCVACQELDSDVDKDNPALNAQAALSQAREHQLASASELPLGS
notes: Residues 1-12 and 78-111 are not modelled in the crystal structure; also called N-terminal SSSCA1; hSSSCA1; not shown: His6, N-terminal, cleaved
B5 was tested, and the “stoichiometry N” value [3] was 2.
